# Numbering of substitutions follows the chain as printed.
# B1: 5#1-Ras03 (antibody, part only; not given: RT22 heavy chain, constant regions, V domains shown, not shown: another chain or arm of the molecule; a dimerising Fc or GST; large carriers; small tags and cut ends)
# VL: LPSGACVVRGDTFQCVSVGMGSSSNDIQMTQSPSSLSASVGDRVTITCKSSQSLLNSRDGKNYLAWYQQKPGKAPKLLIYWASTRESGVPSRFSGSGSGTDFTLTISSLQPEDFATYFCQQYWYWMYTFGQGTKVEIK
# modifications: chain 1: disulfide bond Cys6-Cys15 closes the 5#1 cyclic peptide
# B2: 6#4-Ras03 (antibody, part only; not given: RT22 heavy chain, light constant, V domains shown, not shown: another chain or arm of the molecule; a dimerising Fc or GST)
# VL: ESFRPCQYRGDLFVLCFPSDMGSSSNDIQMTQSPSSLSASVGDRVTITCKSSQSLLNSRDGKNYLAWYQQKPGKAPKLLIYWASTRESGVPSRFSGSGSGTDFTLTISSLQPEDFATYFCQQYWYWMYTFGQGTKVEIK
# modifications: chain 1: disulfide bond Cys6-Cys16 closes the cyclic peptide
# B3: SFITGv6-Ras03 (antibody, part only; not given: RT22 heavy chain, constant regions, V domains shown, not shown: another chain or arm of the molecule; a dimerising Fc or GST; large carriers; small tags and cut ends)
# VL: GRCTFRGDLMQLCYPDMGSSSNDIQMTQSPSSLSASVGDRVTITCKSSQSLLNSRDGKNYLAWYQQKPGKAPKLLIYWASTRESGVPSRFSGSGSGTDFTLTISSLQPEDFATYFCQQYWYWMYTFGQGTKVEIK
# modifications: chain 1: disulfide bond Cys3-Cys13 closes the SFITGv6 cyclic peptide
# B4: in4-Ras03 (antibody, part only; not given: RT22 heavy chain, light constant, V domains shown, not shown: another chain or arm of the molecule; a dimerising Fc or GST)
# VL: DGVRQCRGDCFDGPLMGSSSNDIQMTQSPSSLSASVGDRVTITCKSSQSLLNSRDGKNYLAWYQQKPGKAPKLLIYWASTRESGVPSRFSGSGSGTDFTLTISSLQPEDFATYFCQQYWYWMYTFGQGTKVEIK
# modifications: chain 1: disulfide bond Cys6-Cys10 closes the in4 cyclic peptide
# B5: 6#6-Ras03 (antibody, part only; not given: RT22 heavy chain, light constant, V domains shown, not shown: another chain or arm of the molecule; a dimerising Fc or GST)
# VL: LGPLPCQTRGDLFSLCHYMGSSSNDIQMTQSPSSLSASVGDRVTITCKSSQSLLNSRDGKNYLAWYQQKPGKAPKLLIYWASTRESGVPSRFSGSGSGTDFTLTISSLQPEDFATYFCQQYWYWMYTFGQGTKVEIK
# modifications: chain 1: disulfide bond Cys6-Cys16 closes the cyclic peptide
# B6: 6#8-Ras03 (antibody, part only; not given: RT22 heavy chain, light constant, V domains shown, not shown: another chain or arm of the molecule; a dimerising Fc or GST)
# VL: B5 VL with L1F, G2P, P3N, L4N, P5Q, T8H, S14A, H17A, Y18D
# modifications: chain 1: disulfide bond Cys6-Cys16 closes the cyclic peptide
# B7: 6#2-Ras03 (antibody, part only; not given: RT22 heavy chain, constant regions, V domains shown, not shown: another chain or arm of the molecule; a dimerising Fc or GST; large carriers; small tags and cut ends)
# VL: HVEFPCTRRGDLFVLCEGSMGSSSNDIQMTQSPSSLSASVGDRVTITCKSSQSLLNSRDGKNYLAWYQQKPGKAPKLLIYWASTRESGVPSRFSGSGSGTDFTLTISSLQPEDFATYFCQQYWYWMYTFGQGTKVEIK
# modifications: chain 1: disulfide bond Cys6-Cys16 closes the 6#2 cyclic peptide
# B8: 5#2-Ras03 (antibody, part only; not given: RT22 heavy chain, constant regions, V domains shown, not shown: another chain or arm of the molecule; a dimerising Fc or GST; large carriers; small tags and cut ends)
# VL: ASYNDCQSRGDTFCVADMGSSSNDIQMTQSPSSLSASVGDRVTITCKSSQSLLNSRDGKNYLAWYQQKPGKAPKLLIYWASTRESGVPSRFSGSGSGTDFTLTISSLQPEDFATYFCQQYWYWMYTFGQGTKVEIK
# modifications: chain 1: disulfide bond Cys6-Cys14 closes the 5#2 cyclic peptide
# B9: 5#3-Ras03 (antibody, part only; not given: RT22 heavy chain, constant regions, V domains shown, not shown: another chain or arm of the molecule; a dimerising Fc or GST; large carriers; small tags and cut ends)
# VL: SRDETCTPRGDTFAICMGSSSNDIQMTQSPSSLSASVGDRVTITCKSSQSLLNSRDGKNYLAWYQQKPGKAPKLLIYWASTRESGVPSRFSGSGSGTDFTLTISSLQPEDFATYFCQQYWYWMYTFGQGTKVEIK
# modifications: chain 1: disulfide bond Cys6-Cys16 closes the 5#3 cyclic peptide
# B10: 5#4-Ras03 (antibody, part only; not given: RT22 heavy chain, constant regions, V domains shown, not shown: another chain or arm of the molecule; a dimerising Fc or GST; large carriers; small tags and cut ends)
# VL: EHATNCTTRGDTFVVLCGLGMGSSSNDIQMTQSPSSLSASVGDRVTITCKSSQSLLNSRDGKNYLAWYQQKPGKAPKLLIYWASTRESGVPSRFSGSGSGTDFTLTISSLQPEDFATYFCQQYWYWMYTFGQGTKVEIK
# modifications: chain 1: disulfide bond Cys6-Cys17 closes the 5#4 cyclic peptide
# B11: ep6-Ras03 (antibody, part only; not given: RT22 heavy chain, light constant, V domains shown, not shown: another chain or arm of the molecule; a dimerising Fc or GST)
# VL: NNLRCIGNICWSMGSSSNDIQMTQSPSSLSASVGDRVTITCKSSQSLLNSRDGKNYLAWYQQKPGKAPKLLIYWASTRESGVPSRFSGSGSGTDFTLTISSLQPEDFATYFCQQYWYWMYTFGQGTKVEIK
# modifications: chain 1: disulfide bond Cys5-Cys10 closes the Ep6 cyclic peptide
# B12: ep4-Ras03 (antibody, part only; not given: RT22 heavy chain, light constant, V domains shown, not shown: another chain or arm of the molecule; a dimerising Fc or GST)
# VL: B11 VL with N1E, N2H, R4H, I6L, N8S, I9L
# modifications: chain 1: disulfide bond Cys5-Cys10 closes the cyclic peptide
# B13: ep3-Ras03 (antibody, part only; not given: RT22 heavy chain, light constant, V domains shown, not shown: another chain or arm of the molecule; a dimerising Fc or GST)
# VL: B11 VL with N1E, R4Q, I9L
# modifications: chain 1: disulfide bond Cys5-Cys10 closes the cyclic peptide
# B14: ep7-Ras03 (antibody, part only; not given: RT22 heavy chain, light constant, V domains shown, not shown: another chain or arm of the molecule; a dimerising Fc or GST)
# VL: B11 VL with N1D
# modifications: chain 1: disulfide bond Cys5-Cys10 closes the Ep7 cyclic peptide
# B15: epRas03 (4-8) (antibody, part only; not given: RT22 heavy chain, light constant, V domains shown, not shown: another chain or arm of the molecule; a dimerising Fc or GST)
# VL: B11 VL with N1R, R4L, I9L, S12P
# modifications: chain 1: disulfide bond Cys5-Cys10 closes the cyclic peptide
# B16: epRas03 (4-19) (antibody, part only; not given: RT22 heavy chain, light constant, V domains shown, not shown: another chain or arm of the molecule; a dimerising Fc or GST)
# VL: B11 VL with N1R
# modifications: chain 1: disulfide bond Cys5-Cys10 closes the cyclic peptide
# B17: epRas03 (4-12) (antibody, part only; not given: RT22 heavy chain, light constant, V domains shown, not shown: another chain or arm of the molecule; a dimerising Fc or GST)
# VL: B11 VL with N1R, R4L, I6L, G7R, N8R, S12P
# modifications: chain 1: disulfide bond Cys5-Cys10 closes the cyclic peptide
# B18: epRas03 (4-14) (antibody, part only; not given: RT22 heavy chain, light constant, V domains shown, not shown: another chain or arm of the molecule; a dimerising Fc or GST)
# VL: B11 VL with N1R, R4H, I9L, S12P
# modifications: chain 1: disulfide bond Cys5-Cys10 closes the cyclic peptide
# B19: epRas03 (4-27) (antibody, part only; not given: RT22 heavy chain, light constant, V domains shown, not shown: another chain or arm of the molecule; a dimerising Fc or GST)
# VL: B11 VL with N1R, N2H, R4W, I6L, N8R, I9L, S12P
# modifications: chain 1: disulfide bond Cys5-Cys10 closes the cyclic peptide
# B20: epRas03 (4-13) (antibody, part only; not given: RT22 heavy chain, light constant, V domains shown, not shown: another chain or arm of the molecule; a dimerising Fc or GST)
# VL: B11 VL with N1R, R4Q, G7R
# modifications: chain 1: disulfide bond Cys5-Cys10 closes the cyclic peptide
# B21: TMab4-WYW (antibody, human IgG1, V domains shown)
# VH: EVQLVESGGGLVQPGGSLRLSCAASGYTFTSYVMHWVRQAPGKGLEWVSAINPYNDGNYYADSVKGRFTISRDNSRKTLYLQMNSLRAEDTAVYYCARGAYKRGYAMDYWGQGTTVTVSS
# VL: DLVMTQSPSSLSASVGDRVTITCKSSQSLFNSRTRKNYLAWYQQKPGKAPKLLIYWASTRESGVPSRFSGSGSGTDFTLTISSLQPEDFATYYCQQYWYWMYTFGQGTKVEIKR
# B22: CT03e (antibody, V domains shown)
# VH: B21 VH
# VL: B21 VL with F30L, T34D, R35G, Y93F
# B23: CT03d (antibody, V domains shown)
# VH: B21 VH
# VL: B21 VL with F30L, R35G, N37T, Y93F
# B24: CT03b (antibody, V domains shown)
# VH: B21 VH
# VL: B21 VL with F30L, T34D, R35G, K36N, N37T, A57L, T59Y, E61A, Y93F
# B25: CT03c (antibody, V domains shown)
# VH: B21 VH
# VL: B21 VL with F30L, R33D, T34D, K36N, N37T, A57L, T59Y, E61A, Y93F
# B26: CT03a (antibody, V domains shown)
# VH: B21 VH
# VL: B21 VL with F30L, Y93F
# Biological target: human recombinant integrin αvβ5 (αv extracellular domain-acidic leucine zipper-His×6 with β5 extracellular domain-basic leucine zipper) (human) (UniProt P06756)
# Assay: BLI (Octet), antibody on AHC biosensor, integrin αvβ5 as analyte
# Chain of human recombinant integrin αvβ5 (αv extracellular domain-acidic leucine zipper-His×6 with β5 extracellular domain-basic leucine zipper) (human) (P06756 other isoform, or with tags, fused parts or gaps, chain 1 of 2): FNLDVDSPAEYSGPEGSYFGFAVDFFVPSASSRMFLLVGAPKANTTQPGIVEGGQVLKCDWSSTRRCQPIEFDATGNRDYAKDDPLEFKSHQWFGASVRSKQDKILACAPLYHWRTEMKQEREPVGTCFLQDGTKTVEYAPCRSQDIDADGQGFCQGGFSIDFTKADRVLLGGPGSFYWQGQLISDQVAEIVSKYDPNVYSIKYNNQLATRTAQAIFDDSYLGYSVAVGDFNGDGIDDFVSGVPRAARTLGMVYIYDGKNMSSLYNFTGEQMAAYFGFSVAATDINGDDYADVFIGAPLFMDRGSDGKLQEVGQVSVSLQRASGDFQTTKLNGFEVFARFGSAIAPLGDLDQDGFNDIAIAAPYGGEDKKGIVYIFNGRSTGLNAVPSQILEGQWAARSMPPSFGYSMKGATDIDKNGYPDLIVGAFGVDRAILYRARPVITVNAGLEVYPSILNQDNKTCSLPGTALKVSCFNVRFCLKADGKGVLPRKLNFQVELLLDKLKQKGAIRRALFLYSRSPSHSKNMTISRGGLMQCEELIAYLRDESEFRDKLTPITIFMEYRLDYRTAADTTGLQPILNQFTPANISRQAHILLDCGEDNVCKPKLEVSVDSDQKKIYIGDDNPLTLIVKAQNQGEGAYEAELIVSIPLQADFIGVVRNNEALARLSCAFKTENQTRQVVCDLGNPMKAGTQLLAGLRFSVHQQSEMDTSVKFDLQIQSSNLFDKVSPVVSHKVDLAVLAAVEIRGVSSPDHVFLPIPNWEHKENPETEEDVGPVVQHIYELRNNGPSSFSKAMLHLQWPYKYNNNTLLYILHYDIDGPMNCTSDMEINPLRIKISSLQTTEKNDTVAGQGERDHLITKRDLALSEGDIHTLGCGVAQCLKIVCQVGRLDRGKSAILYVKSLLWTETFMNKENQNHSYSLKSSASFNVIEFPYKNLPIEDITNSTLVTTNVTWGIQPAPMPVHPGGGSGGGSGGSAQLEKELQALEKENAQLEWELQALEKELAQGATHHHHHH
# Chain of human recombinant integrin αvβ5 (αv extracellular domain-acidic leucine zipper-His×6 with β5 extracellular domain-basic leucine zipper) (human) (chain, as listed by the source, chain 2 of 2): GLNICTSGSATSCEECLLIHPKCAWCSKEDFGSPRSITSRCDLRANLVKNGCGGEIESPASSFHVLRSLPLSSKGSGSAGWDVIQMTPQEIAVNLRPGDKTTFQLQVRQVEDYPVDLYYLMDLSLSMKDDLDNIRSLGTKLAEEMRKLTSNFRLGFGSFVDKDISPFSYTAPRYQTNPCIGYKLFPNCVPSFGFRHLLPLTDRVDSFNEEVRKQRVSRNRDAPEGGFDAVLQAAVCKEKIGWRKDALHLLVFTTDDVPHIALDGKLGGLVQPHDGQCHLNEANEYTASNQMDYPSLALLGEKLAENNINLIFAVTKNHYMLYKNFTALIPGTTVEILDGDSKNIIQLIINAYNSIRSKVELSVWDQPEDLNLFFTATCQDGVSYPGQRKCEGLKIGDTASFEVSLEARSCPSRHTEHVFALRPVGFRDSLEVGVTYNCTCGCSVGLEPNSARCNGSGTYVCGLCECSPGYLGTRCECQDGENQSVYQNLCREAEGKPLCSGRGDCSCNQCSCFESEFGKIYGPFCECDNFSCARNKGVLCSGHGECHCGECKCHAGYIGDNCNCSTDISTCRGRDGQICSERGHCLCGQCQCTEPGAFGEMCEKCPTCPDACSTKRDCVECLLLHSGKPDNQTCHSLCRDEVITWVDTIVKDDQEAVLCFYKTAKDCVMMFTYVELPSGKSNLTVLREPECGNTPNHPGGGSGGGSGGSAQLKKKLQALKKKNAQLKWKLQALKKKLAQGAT
row,fold higher affinity than in4-Ras03 [fold],Binder
1,2,B1

# Biological target: human recombinant integrin αvβ6 (αv extracellular domain-acidic leucine zipper-His×6 with β6 extracellular domain-basic leucine zipper) (human) (UniProt P06756)
# Assay: BLI (Octet), antibody captured on anti-human IgG Fc (AHC) biosensor, integrin αvβ6 3.1-100 nM as analyte, divalent cations
# Chain of human recombinant integrin αvβ6 (αv extracellular domain-acidic leucine zipper-His×6 with β6 extracellular domain-basic leucine zipper) (human) (P06756 other isoform, or with tags, fused parts or gaps, chain 1 of 2): as the sequence (P06756 other isoform, or with tags, fused parts or gaps, chain 1 of 2) above
# Chain of human recombinant integrin αvβ6 (αv extracellular domain-acidic leucine zipper-His×6 with β6 extracellular domain-basic leucine zipper) (human) (chain, as listed by the source, chain 2 of 2): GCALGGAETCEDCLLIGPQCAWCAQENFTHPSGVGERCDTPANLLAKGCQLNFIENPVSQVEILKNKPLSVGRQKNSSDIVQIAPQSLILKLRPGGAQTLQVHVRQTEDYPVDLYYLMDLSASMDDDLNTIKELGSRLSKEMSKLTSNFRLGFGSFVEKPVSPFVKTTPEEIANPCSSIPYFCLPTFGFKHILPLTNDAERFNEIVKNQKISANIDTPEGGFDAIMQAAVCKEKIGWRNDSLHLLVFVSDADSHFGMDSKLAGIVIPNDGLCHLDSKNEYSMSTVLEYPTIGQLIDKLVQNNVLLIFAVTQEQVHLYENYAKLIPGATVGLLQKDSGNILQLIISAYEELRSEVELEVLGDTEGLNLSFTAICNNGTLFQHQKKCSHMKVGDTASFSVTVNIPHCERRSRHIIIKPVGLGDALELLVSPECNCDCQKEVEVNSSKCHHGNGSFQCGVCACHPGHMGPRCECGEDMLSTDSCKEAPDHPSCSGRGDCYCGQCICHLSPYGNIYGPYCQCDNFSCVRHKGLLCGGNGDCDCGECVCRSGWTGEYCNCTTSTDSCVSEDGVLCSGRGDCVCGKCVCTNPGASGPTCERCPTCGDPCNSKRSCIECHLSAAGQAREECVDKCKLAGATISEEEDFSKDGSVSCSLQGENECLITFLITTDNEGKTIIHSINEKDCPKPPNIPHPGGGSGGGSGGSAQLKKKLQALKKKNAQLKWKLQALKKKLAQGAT
Kd [nM],koff [s⁻¹],kon [M⁻¹ s⁻¹],Binder
1.52,0.000265,175000,B2
0.457,0.000128,279000,B3
12.1,0.00703,583000,B4
0.843,0.000182,216000,B5
0.952,0.000175,184000,B6
0.722,0.000153,212000,B7

# Biological target: human recombinant integrin αvβ5 (αv extracellular domain-acidic leucine zipper-His×6 with β5 extracellular domain-basic leucine zipper) (human) (UniProt P06756)
# Assay: BLI (Octet), antibody captured on anti-human IgG Fc (AHC) biosensor, integrin αvβ5 3.1-100 nM as analyte, divalent cations
Kd [nM],koff [s⁻¹],kon [M⁻¹ s⁻¹],Binder
2.06,0.000166,80600,B4
2.63,0.00012,45500,B8
4.88,0.000163,33300,B9
7.01,0.000158,22500,B10
1.13,6.39e-05,56700,B1

# Biological target: human recombinant EpCAM antigen (extracellular domain, residues 1 to 265, fused with 6×His tag and Avi-tag) (human) (UniProt P16422)
# Assay: SPR (Biacore 2000), EpCAM on CM5 chip (about 367 RU), antibody 6.25-100 nM as analyte
# Chain of human recombinant EpCAM antigen (extracellular domain, residues 1 to 265, fused with 6×His tag and Avi-tag) (human) (P16422 24-265 limits assumed, form in doubt): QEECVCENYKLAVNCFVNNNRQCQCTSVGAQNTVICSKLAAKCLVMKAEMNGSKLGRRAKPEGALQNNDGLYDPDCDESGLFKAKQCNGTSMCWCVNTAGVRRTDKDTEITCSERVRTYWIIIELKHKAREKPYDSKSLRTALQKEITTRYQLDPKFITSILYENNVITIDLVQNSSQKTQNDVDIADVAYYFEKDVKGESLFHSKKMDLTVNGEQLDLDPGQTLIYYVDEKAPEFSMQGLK
Kd [nM],kon [M⁻¹ s⁻¹],koff [s⁻¹],Binder
1.86,3.02e+06,,B11
12.4,728000,0.00905,B12
2.11,1.7e+06,0.0036,B13
4.35,1.36e+06,,B14

# Biological target: human recombinant integrin αvβ6 (αv extracellular domain-acidic leucine zipper-His×6 with β6 extracellular domain-basic leucine zipper) (human) (UniProt P06756)
# Assay: BLI (Octet), antibody on AHC biosensor, integrin αvβ6 as analyte
row,fold higher binding affinity than in4-Ras03 [fold],Binder
1,12,B5

# Biological target: human recombinant EpCAM antigen (extracellular domain, residues 1 to 265, fused with 6×His tag and Avi-tag) (human) (UniProt P16422)
# Assay: SPR (Biacore 2000), EpCAM on CM5 chip (about 211 RU), antibody 6.25-100 nM as analyte
Kd [nM],koff [s⁻¹],kon [M⁻¹ s⁻¹],Binder
3.04,0.00224,737000,B15
0.313,0.00168,5.38e+06,B16
17.7,0.00117,66400,B17
183,0.00205,11200,B18
9.94,0.00421,424000,B19
0.185,0.00105,5.69e+06,B20

# Biological target: heparan sulfate proteoglycan (HSPG) expressed on HeLa cells
# Assay: cell-based or functional assay
row,"fluorescence intensity of antibody located in the cytoplasm (confocal microscopy, HeLa cells, 1 µM, 6 h) [%]",Binder
1,100,B21
2,19.6,B22
3,26.3,B23
4,12.4,B24
5,31.8,B25
6,40.1,B26
